According to patent US20110171205A1:

Target: hSlo, human pore-forming α-subunit of the high conductance calcium-activated potassium channel (maxi-K) (human) (UniProt Q12791)
Assay: cell-based or functional assay

UniProt Q12791, sequence (Q12791 whole entry): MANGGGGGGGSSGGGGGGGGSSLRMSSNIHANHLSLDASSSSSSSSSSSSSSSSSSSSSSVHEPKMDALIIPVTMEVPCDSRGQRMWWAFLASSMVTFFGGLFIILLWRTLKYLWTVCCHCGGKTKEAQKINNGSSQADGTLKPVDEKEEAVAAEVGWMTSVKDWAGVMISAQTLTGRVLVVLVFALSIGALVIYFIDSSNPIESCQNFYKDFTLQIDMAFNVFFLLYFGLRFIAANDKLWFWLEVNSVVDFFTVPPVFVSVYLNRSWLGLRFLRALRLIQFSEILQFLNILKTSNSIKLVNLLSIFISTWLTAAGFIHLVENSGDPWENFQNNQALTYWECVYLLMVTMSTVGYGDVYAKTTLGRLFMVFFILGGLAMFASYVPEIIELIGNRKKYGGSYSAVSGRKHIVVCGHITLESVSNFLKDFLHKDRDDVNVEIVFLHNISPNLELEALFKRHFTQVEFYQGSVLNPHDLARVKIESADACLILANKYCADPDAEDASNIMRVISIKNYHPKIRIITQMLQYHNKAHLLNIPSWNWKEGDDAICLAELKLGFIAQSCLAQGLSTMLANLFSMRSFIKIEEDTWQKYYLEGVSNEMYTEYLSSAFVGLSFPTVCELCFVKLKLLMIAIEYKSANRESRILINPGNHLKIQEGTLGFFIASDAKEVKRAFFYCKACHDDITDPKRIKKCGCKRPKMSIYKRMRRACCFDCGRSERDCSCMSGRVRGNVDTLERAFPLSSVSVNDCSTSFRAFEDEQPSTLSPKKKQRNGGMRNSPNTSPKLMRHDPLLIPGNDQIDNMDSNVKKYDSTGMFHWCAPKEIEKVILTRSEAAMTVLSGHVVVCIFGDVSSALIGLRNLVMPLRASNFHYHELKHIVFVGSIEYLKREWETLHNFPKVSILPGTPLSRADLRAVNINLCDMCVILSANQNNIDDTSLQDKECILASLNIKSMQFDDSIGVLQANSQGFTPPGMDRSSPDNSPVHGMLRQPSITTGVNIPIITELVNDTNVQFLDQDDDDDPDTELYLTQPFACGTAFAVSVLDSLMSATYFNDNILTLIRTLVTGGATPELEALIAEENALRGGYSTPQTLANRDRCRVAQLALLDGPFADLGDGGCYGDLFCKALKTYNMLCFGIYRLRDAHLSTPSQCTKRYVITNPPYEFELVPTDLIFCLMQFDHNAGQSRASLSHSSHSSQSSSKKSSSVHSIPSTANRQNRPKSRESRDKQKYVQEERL

| Substance | block of hSlo current (whole cell patch) at 300 nM toxin |
| --- | --- |
| charybdotoxin (from UniProt P13487 23-59) (peptide) | > 90% |
| iberiotoxin (from UniProt P24663 1-37) (peptide) | > 90% |
